Test results published in IntAct's records for PubMed 21556048.

Molecular target: ep300_human EP300 (UniProt Q09472)
Sequence (Q09472 whole entry): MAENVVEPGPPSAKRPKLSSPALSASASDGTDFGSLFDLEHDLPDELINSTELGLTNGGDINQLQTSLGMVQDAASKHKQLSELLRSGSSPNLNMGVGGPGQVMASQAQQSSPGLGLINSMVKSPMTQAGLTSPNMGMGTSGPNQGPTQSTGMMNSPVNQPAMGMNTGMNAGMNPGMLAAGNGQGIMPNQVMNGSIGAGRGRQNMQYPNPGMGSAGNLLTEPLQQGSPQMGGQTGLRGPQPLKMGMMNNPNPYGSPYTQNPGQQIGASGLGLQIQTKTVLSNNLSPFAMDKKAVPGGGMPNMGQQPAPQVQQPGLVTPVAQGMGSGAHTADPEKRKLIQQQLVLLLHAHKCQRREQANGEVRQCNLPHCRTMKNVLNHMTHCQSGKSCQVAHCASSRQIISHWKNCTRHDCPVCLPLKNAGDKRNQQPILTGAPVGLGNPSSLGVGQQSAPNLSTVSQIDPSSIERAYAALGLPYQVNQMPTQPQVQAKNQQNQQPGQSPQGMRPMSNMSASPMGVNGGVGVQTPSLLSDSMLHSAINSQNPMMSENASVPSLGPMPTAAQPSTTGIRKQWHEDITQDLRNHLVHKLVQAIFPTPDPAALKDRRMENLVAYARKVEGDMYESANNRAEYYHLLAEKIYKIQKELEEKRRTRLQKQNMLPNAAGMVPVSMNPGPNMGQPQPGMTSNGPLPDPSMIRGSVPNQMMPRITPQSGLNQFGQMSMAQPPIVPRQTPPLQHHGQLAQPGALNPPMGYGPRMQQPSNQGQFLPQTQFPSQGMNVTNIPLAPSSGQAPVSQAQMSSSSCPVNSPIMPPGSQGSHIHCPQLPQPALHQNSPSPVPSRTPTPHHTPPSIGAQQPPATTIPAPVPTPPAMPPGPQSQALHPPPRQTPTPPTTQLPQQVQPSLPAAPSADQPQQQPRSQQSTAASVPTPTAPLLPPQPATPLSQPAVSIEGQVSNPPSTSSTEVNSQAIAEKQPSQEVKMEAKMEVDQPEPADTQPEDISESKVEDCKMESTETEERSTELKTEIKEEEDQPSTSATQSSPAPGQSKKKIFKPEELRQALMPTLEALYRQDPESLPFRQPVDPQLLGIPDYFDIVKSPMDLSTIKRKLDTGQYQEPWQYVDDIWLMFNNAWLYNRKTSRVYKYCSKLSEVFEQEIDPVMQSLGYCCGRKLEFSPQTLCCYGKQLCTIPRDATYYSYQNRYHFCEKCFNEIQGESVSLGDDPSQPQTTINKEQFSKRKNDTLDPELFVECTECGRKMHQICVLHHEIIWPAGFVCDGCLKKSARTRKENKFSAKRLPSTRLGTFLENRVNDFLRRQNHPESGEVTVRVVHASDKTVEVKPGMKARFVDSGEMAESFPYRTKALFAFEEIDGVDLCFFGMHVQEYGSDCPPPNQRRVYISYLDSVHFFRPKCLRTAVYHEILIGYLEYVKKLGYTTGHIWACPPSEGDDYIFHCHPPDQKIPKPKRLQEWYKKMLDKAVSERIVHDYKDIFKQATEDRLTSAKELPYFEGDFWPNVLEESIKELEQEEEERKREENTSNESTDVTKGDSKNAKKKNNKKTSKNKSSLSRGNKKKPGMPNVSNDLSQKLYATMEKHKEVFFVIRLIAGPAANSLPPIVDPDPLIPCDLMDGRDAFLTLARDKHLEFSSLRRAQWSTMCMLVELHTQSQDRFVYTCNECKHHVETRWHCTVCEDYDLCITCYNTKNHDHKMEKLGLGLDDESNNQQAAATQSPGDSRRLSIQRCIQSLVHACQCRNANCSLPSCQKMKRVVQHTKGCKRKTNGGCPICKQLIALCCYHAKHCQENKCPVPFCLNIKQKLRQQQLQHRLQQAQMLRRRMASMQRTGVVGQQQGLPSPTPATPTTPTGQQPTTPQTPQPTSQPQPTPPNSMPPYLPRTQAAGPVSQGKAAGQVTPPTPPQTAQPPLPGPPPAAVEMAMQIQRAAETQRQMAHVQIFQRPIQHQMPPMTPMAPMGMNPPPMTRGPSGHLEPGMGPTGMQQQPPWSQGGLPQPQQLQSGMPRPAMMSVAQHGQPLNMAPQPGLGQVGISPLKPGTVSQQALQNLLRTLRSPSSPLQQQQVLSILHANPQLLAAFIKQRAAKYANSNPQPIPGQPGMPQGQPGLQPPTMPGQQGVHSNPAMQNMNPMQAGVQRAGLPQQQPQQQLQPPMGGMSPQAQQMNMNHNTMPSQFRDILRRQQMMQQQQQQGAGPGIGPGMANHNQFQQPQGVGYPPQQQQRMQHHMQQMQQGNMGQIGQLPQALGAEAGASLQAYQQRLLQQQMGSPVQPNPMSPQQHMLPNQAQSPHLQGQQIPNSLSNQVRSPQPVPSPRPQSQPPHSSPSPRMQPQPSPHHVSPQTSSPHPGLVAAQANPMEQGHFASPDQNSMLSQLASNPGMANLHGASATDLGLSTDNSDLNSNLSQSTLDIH

Chain of Myocyte-specific enhancer factor 2C (Homo sapiens), Q06413 T80A (Q06413 whole entry T80A): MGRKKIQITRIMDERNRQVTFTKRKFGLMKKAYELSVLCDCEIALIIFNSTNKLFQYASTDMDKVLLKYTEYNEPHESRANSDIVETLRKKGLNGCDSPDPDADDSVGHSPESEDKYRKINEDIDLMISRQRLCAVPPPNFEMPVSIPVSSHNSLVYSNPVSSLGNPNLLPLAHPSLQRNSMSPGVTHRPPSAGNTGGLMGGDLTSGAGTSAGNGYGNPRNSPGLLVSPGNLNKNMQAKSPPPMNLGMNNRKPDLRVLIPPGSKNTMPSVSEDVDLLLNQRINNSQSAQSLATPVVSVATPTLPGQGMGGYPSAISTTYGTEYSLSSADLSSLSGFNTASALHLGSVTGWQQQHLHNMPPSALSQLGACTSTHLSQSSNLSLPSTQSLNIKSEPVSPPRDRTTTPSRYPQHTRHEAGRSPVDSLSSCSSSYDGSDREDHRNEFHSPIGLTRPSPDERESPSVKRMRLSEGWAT

## Myocyte-specific enhancer factor 2C (Homo sapiens), Q06413 T80A
  effect of a mutation on the interaction: decreasing interaction
